Data: the RNAGym collection of RNA variant scans (doi:10.7554/elife.80360)

B1: HDV Ribozyme (parent)
chain: GGCCGGCAUGGUCCCAGCCUCCUCGCUGGCGCCGGCUGGGCAACAUUCCGAGGGGACCGUCCCCUCGGUAAUGGCGAAUGGGACCCA

Variants of: B1
Assay: self-cleavage, relative activity (ratio to wild type); higher = more cleavage; co-transcriptional

Variant | self-cleavage
G53C | 0.97
G53U | 1.01
G54C G80U | 0.206
G54C G80C | 0.256
G53U G74U | 0.701
G53U G74A | 0.646
G53U G74C | 0.202
G55A U60A | 0.99
G55A U60G | 0.798
G55C A83G | 0.767
G53U U69G | 0.964
G53U U69C | 0.931
G53U U69A | 0.969
G54C A77U | 0.695
G54C A77C | 0.426
G54A G81C | 0.26
G54A G81A | 0.511
G54U A56G | 1.15
G54U A56C | 0.861
G55A C66A | 1.07
G55A C66U | 1.11
G54U U65C | 0.969
G54U U65G | 0.782
G55C A71U | 0.872

Variant | self-cleavage
G55C A71C | 0.903
G54C G59A | 0.926
G53C U60A | 1.15
G54C C75G | 0.151
G54C C75U | 0.358
G54C C75A | 0.138
G55C A78U | 0.324
G55C A78C | 0.111
G55C A78G | 0.525
G53C G59U | 0.967
G53U G81U | 0.28
G55A G68U | 0.965
G54U U60C | 1
G54U U60A | 0.946
G54U C75A | 0.241
G54U C75U | 0.189
G54U G80C | 0.159
G53U A87C | 0.984
G53U A87U | 0.969
G53U A87G | 1.03
G53C G67U | 0.631
G53C G67A | 0.723
G53C G67C | 0.427
G54C A56C | 0.864

Variant | self-cleavage
G54C A56U | 1.06
G55A G80C | 0.138
G55A G80A | 0.369
G54U A87U | 0.973
G54U A87C | 1.06
G54U A87G | 0.933
G53C A87U | 0.903
G54U U79G | 0.266
G55A U72A | 0.917
G54A A71U | 0.912
G55A G81C | 0.312
G55A G67C | 0.942
G55A G67U | 1.12
G54C A70U | 0.81
G54C A70C | 0.755
G54C A70G | 1.07
G53U G55C | 1.01
G54U G81A | 0.306
G54U G81C | 0.299
G54U G81U | 0.349
G53C G55U | 0.987
G53C G55A | 0.898
G54A A77U | 0.634
G54A A77G | 0.614

Variant | self-cleavage
G55A G74C | 0.208
G54A A78U | 0.245
G53U C57U | 1.01
G53U C57G | 1.1
G55C | 1.02
G55A | 0.996
G53U G73C | 0.428
G53U G73A | 0.831
G53U G73U | 0.472
G53U C75G | 0.214
G55A U69G | 0.942
G55A U69C | 0.918
G54C C66A | 0.814
G54C C66G | 0.591
G54C C66U | 0.917
G54U C57G | 1.1
G54C C57G | 1.05
G54C C57A | 0.937
G54A A56U | 0.878
G54A A56C | 1.03
G53U A70U | 0.739
G53U A70G | 1.08
G54C C85G | 0.724
G54C C85A | 0.831

Variant | self-cleavage
G54C C85U | 0.892
G53C C58A | 1.06
G53C C58U | 1.14
G53C A78G | 0.554
G53C A78U | 0.525
G54C C84A | 0.598
G54C C84G | 0.917
G54U A78U | 0.302
G54U A78G | 0.534
G54C G68U | 0.616
G54U C61G | 0.889
G54U C61A | 1.04
G54C G81U | 0.19
G54C G81C | 0.196
G54C G81A | 0.393
G53C A77C | 0.443
G54U C66G | 0.882
G54U C66A | 0.796
G54C G67C | 0.627
G54C G67A | 0.819
G54C G67U | 0.783
G53C C62U | 1.03
G53C C62A | 0.937
G54A U65G | 0.466

Variant | self-cleavage
G54A U65A | 0.267
G54A C63U | 1.04
G54A C63G | 0.816
G53U U60C | 0.923
G54A C86G | 1.07
G54A C86A | 0.988
G54A C86U | 0.992
G54A C75A | 0.211
G54A C75G | 0.185
G54A C75U | 0.164
G54C G74U | 0.475
G54U C58U | 0.94
G53U C62G | 0.793
G53U C62U | 1.06
G53U U72A | 0.798
G53U U72C | 0.563
G53U U72G | 0.554
G53U C58G | 0.939
G53U C58U | 1.03
G53U C58A | 1.02
G54U C85G | 0.888
G53U C61A | 1.02
G54A A70C | 0.779
G54U G68C | 0.496

Variant | self-cleavage
G54U G68A | 0.81
G54U G68U | 0.842
G54A G55A | 1.29
G54A G55U | 0.993
G53U G68C | 0.277
G54A C62G | 1.06
G54A C62A | 0.917
G54A C62U | 1.05
G53C G54U | 1.08
G53C G54C | 0.706
G55A C57G | 1.07
G55A C57A | 0.927
G54C U65G | 0.8
G54C U65C | 0.92
G54C U65A | 0.721
G53U G54C | 0.845
G53U G54A | 0.758
G53U G54U | 0.831
G53C C86G | 0.903
G54A U72A | 0.707
G54A G74C | 0.194
G54A G74U | 0.562
G54A G74A | 0.445
G55C A87C | 1.11

Variant | self-cleavage
G55C A87G | 0.953
G55C A87U | 1.02
G54A A87G | 0.877
G53U C64G | 0.62
G54A G76A | 0.923
G54A G76U | 0.799
G53C A70C | 0.653
G53C A70G | 0.962
G53C A70U | 0.988
G54C U79A | 0.755
G54C U79G | 0.475
G54U A83C | 0.386
G54U A83G | 0.956
G55A A77G | 0.991
G55A A77U | 0.694
G53C U72A | 0.601
G53C U72G | 0.697
G53C U72C | 1.02
G53C G74U | 0.379
G53C G74C | 0.19
G53C U65G | 0.688
G55A C85G | 0.962
G54U A77C | 0.415
G53C U69A | 0.77

Variant | self-cleavage
G54C G55C | 0.981
G54C G55U | 1.05
G54A C66A | 0.634
G54A C66G | 0.821
G54A C66U | 0.933
G53U G82U | 0.427
G53U C66U | 1.15
G53U C66G | 0.821
G55A A78C | 0.0639
G55A A78U | 0.201
G55A A78G | 0.698
G55A C84A | 0.992
G55A C84G | 0.635
G53C C61U | 1.2
G53C C61G | 0.955
G55C C66A | 0.87
G53C G82C | 0.0923
G53C G82U | 0.358
G53C G82A | 0.383
G54U A70U | 0.997
G54C C61A | 0.926
G54C C61U | 1.01
G55C A70U | 0.96
G55C A70C | 0.932

Variant | self-cleavage
G55A A83U | 0.415
G54U G82C | 0.237
G54U G82U | 0.432
G53C C66U | 0.918
G53C C66A | 0.73
G53C C66G | 1.01
G54A G68A | 0.895
G54A G68U | 0.641
G53U G59U | 0.899
G53U G59C | 1.23
G53U G59A | 1.14
G54A C84U | 0.563
G54A C84G | 0.462
G54A C84A | 0.496
G54C C64U | 0.82
G54C G73A | 0.565
G54C C63G | 0.831
G54C C63U | 0.774
G55C C64U | 1.12
G55C C64G | 0.953
G55A U65G | 1.09
G55C C75G | 0.208
G53U C85U | 0.969
G54C U69A | 0.945

Variant | self-cleavage
G54C U69C | 0.99
G53U U79C | 0.535
G53U U79A | 0.509
G53U U79G | 0.405
G55A A70G | 0.89
G54C C62U | 0.746
G54U G74A | 0.601
G54U G74U | 0.421
G54U G76C | 0.73
G54U G76U | 1.09
G54U G76A | 0.981
G54U U72C | 0.554
G54U U72A | 0.614
G54U U72G | 0.919
G54A G73C | 0.527
G54A G73U | 0.211
G54A G73A | 0.394
G54U G73C | 0.297
G54U G73U | 0.364
G55C A77U | 0.65
G55C C61U | 1
G53C G81A | 0.369
G53C G81U | 0.293
G55A A56U | 0.926

Variant | self-cleavage
G54A G59U | 1.06
G54A U79A | 0.465
G54U C64G | 0.831
G55A C61U | 0.96
G53C C75U | 0.131
G54C G82C | 0.397
G53U A71G | 0.843
G55A G73A | 0.812
G53C G73C | 0.36
G53C G73A | 0.782
G53C G73U | 0.369
G54C C58G | 1.04
G53U C63U | 0.895
G53U C63G | 1.02
G55C C63U | 0.808
G54A C85G | 0.892
G53C U79G | 0.443
G53C U79A | 0.538
G55C C57U | 0.976
G55A A87C | 1.1
G55A A87U | 1
G55A A87G | 0.966
G54U G59C | 1.03
G53C C84U | 0.712

Variant | self-cleavage
G54A U69G | 0.882
G54C C86U | 0.923
G55C C62A | 1.04
G53C C63G | 0.973
G53C C63A | 1.06
G53U A78C | 0.229
G53U A78G | 0.739
G53U G67A | 0.855
G54A C58G | 1.03
G54A G80C | 0.0831
G54A G80U | 0.214
G55A C58U | 1.07
G55A C58A | 0.978
G54A C64U | 0.696
G54A C64A | 0.453
G55A C75A | 0.254
G53U C86U | 1.14
G54U G67U | 0.774
G54U G67C | 0.694
G54A G67C | 0.591
G53C A83C | 0.525
G54U A71C | 0.654
G54U A71G | 0.897
G54U A71U | 0.987

Variant | self-cleavage
G55A C86A | 0.978
G55A C86G | 0.818
G54U C63A | 0.901
G54U C63G | 0.749
G54U G55C | 0.953
G53U U65G | 0.831
G53U A77U | 0.623
G53U A77C | 0.453
G54A C57U | 1.02
G54A C57A | 0.818
G54C A87U | 0.901
G53U G76C | 1.11
G55A G59A | 1.13
G55A G59U | 0.973
G54A C61U | 1.04
G54A C61G | 0.881
G54C A83G | 0.905
G55A C63A | 1.21
G55A C63G | 0.632
G54A G82C | 0.282
G54A G82A | 0.208
G54C A71U | 0.731
